T1: 6xHis-Crz1 (CaCrz1) (Candida albicans, UniProt Q5A4H5 1-731)
T1 sequence: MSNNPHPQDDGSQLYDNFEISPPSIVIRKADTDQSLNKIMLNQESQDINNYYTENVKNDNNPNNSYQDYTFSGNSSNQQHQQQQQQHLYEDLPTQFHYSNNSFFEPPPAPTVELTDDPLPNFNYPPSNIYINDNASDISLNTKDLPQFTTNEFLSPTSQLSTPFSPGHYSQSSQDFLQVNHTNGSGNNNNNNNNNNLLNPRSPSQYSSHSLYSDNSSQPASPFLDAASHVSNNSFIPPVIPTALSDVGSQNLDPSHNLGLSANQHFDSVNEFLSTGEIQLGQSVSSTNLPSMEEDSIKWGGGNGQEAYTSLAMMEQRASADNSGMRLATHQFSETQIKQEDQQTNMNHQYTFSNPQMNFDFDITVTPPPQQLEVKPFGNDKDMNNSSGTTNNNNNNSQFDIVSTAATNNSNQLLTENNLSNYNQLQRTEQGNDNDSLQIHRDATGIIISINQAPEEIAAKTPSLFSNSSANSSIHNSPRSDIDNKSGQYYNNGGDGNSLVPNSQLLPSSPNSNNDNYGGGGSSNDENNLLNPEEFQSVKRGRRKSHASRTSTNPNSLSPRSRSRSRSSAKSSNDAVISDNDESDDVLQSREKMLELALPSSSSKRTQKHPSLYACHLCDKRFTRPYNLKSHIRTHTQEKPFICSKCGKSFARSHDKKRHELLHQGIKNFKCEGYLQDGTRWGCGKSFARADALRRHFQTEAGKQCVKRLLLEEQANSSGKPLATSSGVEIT

B1: EMSA_PHR1_F/R (PHR1 promoter CDRE probe) (dsDNA)
DNA 1: CCTTTCTCATAGGAATTCATCGACGCCTCATTCATACTAATATAATAGGT
DNA 2: ACCTATTATATTAGTATGAATGAGGCGTCGATGAATTCCTATGAGAAAGG
B2: unlabelled EMSA_PHR1_F/R (specific competitor) (dsDNA)
DNA 1: CCTTTCTCATAGGAATTCATCGACGCCTCATTCATACTAATATAATAGGT
DNA 2: ACCTATTATATTAGTATGAATGAGGCGTCGATGAATTCCTATGAGAAAGG

What was measured:
6xHis-Crz1 (CaCrz1) [1] = molecular target: T1, 6xHis-Crz1 (CaCrz1); assay: EMSA; 1 ug protein; DIG Gel Shift Kit (Roche), per manufacturer; buffer, salt, pH and temperature not stated; settings: protein: recombinant; tags: His6; label: DIG at 3' end; blunt
6xHis-Crz1 (CaCrz1) [2] = molecular target: T1, 6xHis-Crz1 (CaCrz1); assay: competition; unlabelled probe abolished binding to DIG-labelled N1; 1 ug protein; DIG Gel Shift Kit (Roche), per manufacturer; buffer, salt, pH and temperature not stated; settings: protein: recombinant; tags: His6; blunt

Binder | binding result (6xHis-Crz1 (CaCrz1) [1]) | binding result (6xHis-Crz1 (CaCrz1) [2])
B1 | binds | 
B2 |  | binds

Reference: article PMC10506259, “A glycosylated Phr1 protein is induced by calcium stress and its expression is positively controlled by the calcium/calcineurin signaling transcription factor Crz1 in Candida albicans”
